From patent publication US12247062 (1GLOBE BIOMEDICAL, dated 2025) come the findings set out here.

This test concerns the target T1, rituximab (RITUXAN), coated on CD20+ Daudi cells.
T1 construct: also called MABTHERA; ZYTUX
The experiment in a line: flow cytometry titrations compared: rituximab-coated Daudi cells against Jurkat cells (CD3). The source says: Figure 12: FIG. 12 schematically depicts an assay using Daudi cells to test the ability of an Adapter-like ADCC Enhancer of the present invention to bind CD20+ target cells coated with RITUXAN (rituximab). Figure 13: FIG. 13 illustrates FACS data showing, in an assay according to FIG. 12, the binding between Daudi cells and the ADCC Enhancer of the invention before purification ("Sample Load") and after purification ("Purified Protein"). Figure 14: FIG. 14 illustrates FACS data showing titration of binding between Daudi cells and the ADCC Enhancer of the invention at various concentrations. The volume of the Enhancer in microliters are indicated in the upper right corner of the top six diagrams as: 50, 25, 12.5, 6.25, 3.13 and 1.56 microliters. The bottom diagram summarizes the data. CD20+ Daudi cells were coated with RITUXAN (rituximab) (anti-CD20 antibody) and excess RITUXAN (rituximab) was removed by washing the cells with PBS. RITUXAN (rituximab)-coated cells were incubated with various amounts of the Enhancer, and excess Enhancer was removed by washing the cells in PBS. Bound Enhancer proteins were detected using fluorescent anti-human CD64 antibody.
With tagged protein, binding affinity can also be detected using a fluorescently tagged anti-tag antibody. This approach can also be used to detect binding of the CD64 domain by rituximab-coated CD20⁺ Daudi cells (see FIG. 12). […]

B1: CD64-dhOKT3 fusion protein (Adapter-like ADCC Enhancer) (other)
chain: QVDTTKAVITLQPPWVSVFQEETVTLHCEVLHLPGSSSTQWFLNGTATQTSTPSYRITSASVNDSGEYRCQRGLSGRSDPIQLEIHRGWLLLQVSSRVFTEGEPLALRCHAWKDKLVYNVLYYRNGKAFKFFHWNSNLTILKTNISHNGTYHCSGMGKHRYTSAGISVTVKELFPAPVLNASVTSPLLEGNLVTLSCETKLLLQRPGLQLYFSFYMGSKTLRGRNTSSEYQILTARREDSGLYWCEAATEDGNVLKRSPELELQVLSSGGGGSQVQLVQSGGGVVQPGRSLRLSCKSSGYTFTRYTMHWVRQAPGKGLEWIGYINPSRGYTNYNQKVKDRFTISRDNSKNTAFLQMDSLRPEDTGVYFCARYYDDHYCLDYWGQGTPVTVSSVEGGSGGSGGSGGSGGVDDIQMTQSPSSLSASVGDRVTITCRASSSVSYMNWYQQTPGKAPKRWIYDTSKVASGVPSRFSGSGSGTDYTFTISSLQPEDIATYYCQQWSSNPLTFGQGTKLQIT
notes: Expressed in Expi293 cells and used as culture supernatant or after IgG Sepharose purification; Untagged; also called Soluble Universal ADCC Enhancer Protein; SUAEP
As for B1, the “fold stronger Fc- or antibody-binding than CD3-binding” value is approximately 30 fold.
